Assay results published in publication doi:10.1101/2023.12.22.573140.

Tests used:
Assay in all cases: ITC
[1] = target: TGM6 domain 3 (TGM6-D3) (Heligmosomoides polygyrus)
[2] = target: TGF-β mimic 6 (TGM6), full-length (Heligmosomoides polygyrus)
[3] = target: TGF-β type II receptor (TβRII) (UniProt P37173)

Substance | fold decrease in binding affinity against wild type [3] | other results
TGF-β type II receptor (TβRII) (from UniProt P37173 46-155) | – | Kd [1]: 440 nM; Kd [2]: 220 nM
TGM1-D3 S242R (domain or fragment) | – | fold gain of binding affinity against wild type [3]: 4 fold
TGM6-D3 I78A (domain or fragment) | 15.4 fold | –
TGM6-D3 R38A (domain or fragment) | 22 fold | –
TGM6-D3 R82A (domain or fragment) | 11 to 12 fold | –
TGM6-D3 R82S (domain or fragment) | – | fold loss of binding affinity against wild type [3]: 7.4 fold
TGM6-D3 R95A (domain or fragment) | 11.6 fold | –
TGM6-D3 Y80A (domain or fragment) | 134 fold | –
TGM6-D3 Y80F (domain or fragment) | 3.5 fold | –
TGM6-D3 Y93A (domain or fragment) | 108 fold | –
